Laboratory results reported in patent publication US10704056B2, “Constitutively active ABA receptor mutants” (The Regents of the University of California, priority 2011, dated 2020).

T1: ABI1 (Arabidopsis thaliana, UniProt P49597)
T1 construct: Full length ABI1 and ABI2 were cloned into a modified pSUMO vector; made in house; host or cells: E. coli BL21 (DE3) pLysS
T1 sequence (P49597 1-434): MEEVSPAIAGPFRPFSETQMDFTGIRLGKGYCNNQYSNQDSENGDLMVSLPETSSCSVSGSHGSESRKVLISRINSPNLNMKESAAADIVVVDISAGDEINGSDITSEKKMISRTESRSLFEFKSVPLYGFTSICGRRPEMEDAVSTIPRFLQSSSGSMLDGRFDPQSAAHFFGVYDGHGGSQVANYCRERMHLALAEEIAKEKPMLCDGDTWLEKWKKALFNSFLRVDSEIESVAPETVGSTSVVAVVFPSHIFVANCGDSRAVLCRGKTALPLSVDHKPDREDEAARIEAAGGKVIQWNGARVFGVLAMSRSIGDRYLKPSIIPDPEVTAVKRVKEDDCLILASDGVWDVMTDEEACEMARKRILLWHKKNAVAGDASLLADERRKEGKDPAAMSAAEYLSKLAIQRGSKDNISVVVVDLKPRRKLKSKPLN

T2: ABI2 (Arabidopsis thaliana, UniProt O04719)
T2 construct: Full length ABI1 and ABI2 were cloned into a modified pSUMO vector; made in house; host or cells: E. coli BL21 (DE3) pLysS
T2 sequence (O04719 1-423): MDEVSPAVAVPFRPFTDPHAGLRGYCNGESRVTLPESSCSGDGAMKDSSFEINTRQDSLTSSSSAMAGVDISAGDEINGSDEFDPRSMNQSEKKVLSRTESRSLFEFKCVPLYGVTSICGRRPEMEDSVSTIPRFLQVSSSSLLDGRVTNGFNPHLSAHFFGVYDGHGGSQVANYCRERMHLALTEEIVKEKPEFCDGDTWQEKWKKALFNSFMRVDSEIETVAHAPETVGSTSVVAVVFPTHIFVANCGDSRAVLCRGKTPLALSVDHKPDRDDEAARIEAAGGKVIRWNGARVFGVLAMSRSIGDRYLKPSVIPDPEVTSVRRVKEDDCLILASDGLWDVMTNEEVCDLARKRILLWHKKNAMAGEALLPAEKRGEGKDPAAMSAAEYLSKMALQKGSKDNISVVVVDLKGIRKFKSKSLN


What was measured:
HAB1 = assay: In vitro PP2C phosphatase (pNPP) receptor activation assay with HAB1; type: biochemical, Arabidopsis; conditions: 600 nM GST-HAB1, 0-4800 nM receptor, no ABA
Protocol: Recombinant receptor proteins were produced as follows: Coding sequences were cloned into pET28 yielding 6×HIS (SEQ ID NO:173) fusions proteins and transformed into E. coli expression strain BL21. […]. Cells were stored at −80° C. before purification. After thawing, cells were sonicated on ice five times for 30 sec with 30 sec resting intervals. A cleared lysate was obtained after centrifugation at 12,000×g for 10 min and applied to 1 ml of Ni-NTA column (Qiagen) and washed with 20 column volumes of Buffer A containing 30 mM imidazole. Bound protein was eluted with 10 ml of Buffer A with 250 mM imidazole. The elutate was dialyzed against TBS. The purified recombinant proteins were then used together with recombinant phosphatases in receptor assays. In these assays, receptor activity is indicated by inhibition of phosphatase activity, as inferred from initial reaction velocities for GST-HAB1 mediated hydrolysis of the synthetic phosphatase substrate pNPP. Reactions contained 600 nM GST-HAB1 and either 0, 600, 1200, 2400 or 4800 nM 6×His-PYR1 or variants in a reaction buffer consisting of 33 mM Tris-OAc, pH 7.9, 66 mM KOAc, 0.1% BSA, 25 mM Mn(OAc)2, 50 mM pNPP. To infer the level of receptor activation with respect to fully activated wild type receptor, control reactions were also conducted using saturating levels of (+)-ABA (10 μM), and 600 nM wild type PYR1 and HAB1. Immediately after mixing proteins and substrates, reactions were monitored for hydrolysis of pNPP at A405 at ˜10 second intervals over 20 minutes using a Wallac plate reader. Reaction progressions were plotted, initial velocities calculated and converted to specific activities using a standard curve for 4-nitrophenol made in the same buffer system volumes/plate reader used for enzymatic reaction measurements. The values shown are expressed as %-control phosphatase activity levels as measured in the absence of receptor protein. The average specific activity level of GST-HAB1 utilized in our experiments was 4000 μmol/min/mg, when assayed on the phosphatase substrate pNPP in the absence of PYR1 or other receptors, as described using the methods above.
(§1) Full length ABI1 and ABI2 were cloned into a modified pSUMO vector (LifeSensors Inc, USA) vector yielding 6×His-SUMO fusion proteins; GST-HAB1 was expressed and purified as previously described (Park et al., 2009). Mutant receptors were cloned into pET28 yielding 6×His-fusion proteins. […]. The cultures were pre-incubated 2 hours at 30° C. and, for PP2C expression, media was supplemented with 4 mM MnCl2 one hour after inoculation. After pre-incubation, IPTG was added (1 mM) and cells were induced at 15° C. for 16 hours, after which they were collected by centrifugation, resuspended in 5 ml Buffer A (50 mM NaH2PO4, 300 mM NaCl) +10 mM imidazole, pH 8.0 and stored at −80° C. For purification, cells were thawed, sonicated on ice (60 seconds) and a cleared lysate was then applied a 1 ml-bed volume column of Ni-NTA (Qiagen, USA), washed with 20 column volumes of Buffer A+30 mM imidazole and bound protein eluted with 1 ml of Buffer A+250 mM imidazole. For receptors, the elutate was dialyzed against TBS and for PP2Cs, fusion proteins were desalted by passage over a Sephadex G50 column.
The purified receptors and phosphatases were then used in receptor assays where receptor activation is indicated by inhibition of phosphatase activity, as inferred from initial reaction velocities for PP2C-mediated hydrolysis of the synthetic phosphatase substrate pNPP in reactions containing 600 nM PP2C and either 0, 600, 1200, 2400 or 4800 nM receptor. The receptor assay buffer consisted of 33 mM Tris-OAc, pH 7.9, 66 mM KOAc, 0.1% BSA, 25 mM Mn(OAc)2, 0.1%13-ME and 50 mM pNPP. Immediately after mixing proteins and substrates, reactions were monitored for hydrolysis of pNPP at A405 at ˜2 minutes intervals using a Wallac plate reader. […]

ABI1 = biological target: T1, ABI1; assay: In vitro PP2C phosphatase (pNPP) receptor activation assay with ABI1; type: biochemical; conditions: 600 nM PP2C, 0-4800 nM receptor, no ABA
Protocol: as §1
(§2) The purified receptors and phosphatases were then used in receptor assays where receptor activation is indicated by inhibition of phosphatase activity, as inferred from initial reaction velocities for PP2C-mediated hydrolysis of the synthetic phosphatase substrate pNPP in reactions containing 600 nM PP2C and either 0, 600, 1200, 2400 or 4800 nM receptor. The receptor assay buffer consisted of 33 mM Tris-OAc, pH 7.9, 66 mM KOAc, 0.1% BSA, 25 mM Mn(OAc)2, 0.1%13-ME and 50 mM pNPP. Immediately after mixing proteins and substrates, reactions were monitored for hydrolysis of pNPP at A405 at ˜2 minutes intervals using a Wallac plate reader. Reaction progressions were plotted, initial velocities calculated and converted to specific activities by comparison to a standard curve for 4-nitrophenol made in the same buffer system. PP2C activity values shown in figures are expressed as %-control phosphatase activity levels, as measured under identical reaction conditions in the absence of receptor protein. The average specific activity level of GST-HAB1, 6×His-SUMO-ABI1 and 6×His-SUMO-ABI2 utilized in our experiments was 4500 (GST-PP2C) or 2500 (SUMO-PP2C) μmol/min/mg, when assayed using the phosphatase substrate pNPP in the absence of PYR1 or other receptors.

ABI2 = biological target: T2, ABI2; assay: In vitro PP2C phosphatase (pNPP) receptor activation assay with ABI2; type: biochemical; conditions: 600 nM PP2C, 0-4800 nM receptor, no ABA
Protocol: as §1, §2

Row | constitutive receptor activity on ABI1 in the absence of ABA (ABI1) | constitutive receptor activity on ABI2 in the absence of ABA (ABI2) | Molecule | basal receptor activity (inhibition of HAB1 phosphatase activity in the absence of ABA) (HAB1)
1 | active towards multiple PP2Cs | active towards multiple PP2Cs | PYL2^CA4: PYL2 mutant (H65P, V87F, M1641, F165V) (protein) HHHHHHMSSSPAVKGLTDEEQKTLEPVIKTYHQFEPDPTTCTSLITQRIHAPASVVWPLIRRFDNPERYKPFVKRCRLISGDGDVGSVREVTFISGLPASTSTERLEFVDDDHRVLSFRVVGGEHRLKNYKSVTSVNEFLNQDSGKVYTVVLESYTVDIPEGNTEEDTKIVVDTVVKLNLQKLGVAATSAPMHDDE | highly activated in the absence of ABA
2 | interact with ABI1 and ABI2 | interact with ABI1 and ABI2 | PYR1^CA3: PYR1 triple mutant (H60P, V83F, F159V) (protein) HHHHHHMPSELTPEERSELKNSIAEFHTYQLDPGSCSSLHAQRIHAPPELVWSIVRRFDKPQTYKPFIKSCSVEQNFEMRVGCTRDVIFISGLPANTSTERLDILDDERRVTGFSIIGGEHRLTNYKSVTTVHRFEKENRIWTVVLESYVVDMPEGNSEDDTRMVADTVVKLNLQKLATVAEAMARNSGDGSGSQVT | dramatically increased basal PYR1 activity
3 | interact with ABI1 and ABI2 | interact with ABI1 and ABI2 | PYR1^CA4: PYR1 quadruple mutant (H60P, V83F, F159V, M158I) (protein) HHHHHHMPSELTPEERSELKNSIAEFHTYQLDPGSCSSLHAQRIHAPPELVWSIVRRFDKPQTYKPFIKSCSVEQNFEMRVGCTRDVIFISGLPANTSTERLDILDDERRVTGFSIIGGEHRLTNYKSVTTVHRFEKENRIWTVVLESYVVDMPEGNSEDDTRIVADTVVKLNLQKLATVAEAMARNSGDGSGSQVT | dramatically increased basal PYR1 activity
4 | active towards multiple PP2Cs | active towards multiple PP2Cs | PYL9^CA4: PYL9 mutant (V85F, Y160I, F161V) (protein) HHHHHHMMDGVEGGTAMYGGLETVQYVRTHHQHLCRENQCTSALVKHIKAPLHLVWSLVRRFDQPQKYKPFVSRCTVIGDPEIGSLREVNFKSGLPATTSTERLELLDDEEHILGIKIIGGDHRLKNYSSILTVHPEIIEGRAGTMVIESFVVDVPQGNTKDETCIVVEALIRCNLKSLADVSERLASQDITQ | highly activated in the absence of ABA
